In US20250295799A1 (Zymeworks, published 2025):
Positions count from the first letter of the chain named.

B1: v40203, H18L6_LC_G34D mAb (antibody, human IgG1, kappa, V domains shown)
VH: QVQLVQSGAEVKKPGSSVKVSCKASGYTFTDYEMHWVKQAPGHGLEWIGAIDPETGDTAYNQKFKGKATLTADTSTSTAYMELSSLRSEDTAVYYCTRYFSFAYWGQGTLVTVSS
VL: EIVLTQSPATLSLSPGERATISCRSSQSLRHSNDNTYLQWYQQKPGQAPRLLIYKVSNRFSGVPARFSGSGSGTDFTLTISSLEPEDFAVYFCYQSKHVPYTFGGGTKVEIKR
B2: v40214, H18L6_LC_N33T mAb (antibody, human IgG1, kappa, V domains shown)
VH: B1 VH
VL: B1 VL with N33T, D34G
notes: no number given for this variant
B3: v40211, H18L6_LC_G34V mAb (antibody, human IgG1, kappa, V domains shown)
VH: B1 VH
VL: B1 VL with D34V
notes: as for B2
B4: v40208, H18L6_LC_G34Q mAb (antibody, human IgG1, kappa, V domains shown)
VH: B1 VH
VL: B1 VL with D34Q
B5: v40210, H18L6_LC_G34S mAb (antibody, human IgG1, kappa, V domains shown)
VH: B1 VH
VL: B1 VL with D34S
notes: as for B2
B6: v40212, H18L6_LC_G34A mAb (antibody, human IgG1, kappa, V domains shown)
VH: B1 VH
VL: B1 VL with D34A
notes: as for B2
B7: v40209, H18L6_LC_G34T mAb (antibody, human IgG1, kappa, V domains shown)
VH: B1 VH
VL: B1 VL with D34T
notes: as for B2
B8: v40207, H18L6_LC_G34K mAb (antibody, human IgG1, kappa, V domains shown)
VH: B1 VH
VL: B1 VL with D34K
B9: v40204, H18L6_LC_G34E mAb (antibody, human IgG1, kappa, V domains shown)
VH: B1 VH
VL: B1 VL with D34E
notes: as for B2
B10: v40206, H18L6_LC_G34R mAb (antibody, human IgG1, kappa, V domains shown)
VH: B1 VH
VL: B1 VL with D34R
B11: v40213, H18L6_LC_N33E mAb (antibody, human IgG1, kappa, V domains shown)
VH: B1 VH
VL: B1 VL with N33E, D34G
notes: as for B2
B12: v40205, H18L6_LC_G34H mAb (antibody, human IgG1, kappa, V domains shown)
VH: B1 VH
VL: B1 VL with D34H
notes: as for B2

Biological target: T1, recombinant cynomolgus GPC3 (glypican-3) (cynomolgus monkey, UniProt A0A2K5VK50 24-558)
T1 construct: also called cynoGPC3
Experiment: SPR; Kd on human GPC3 divided by Kd on cynomolgus GPC3
Experimental: (§1) CM5 Series S sensor chip, Biacore™ amine coupling kit (NHS, EDC and 1 M ethanolamine), and 10 mM sodium acetate buffers were purchased from Cytiva Life Sciences (Mississauga, ON, Canada). PBS running buffer with 0.05% Tween20 (PBST) was purchased from Teknova Inc. (Hollister, CA). Antigens: recombinant human and cynomolgus GPC3 was purchased from ACROBiosystems (Newark, DE) and SEC purified on a Superdex 200 10/300 GL column (Cytiva) in PBST running buffer at 0.8 mL/min.
(§2) Screening of the antibodies for binding to GPC3 antigen was conducted via anti-Fc capture of antibodies, followed by the injection of five concentrations of GPC3. The anti-Fc surface was prepared on a CM5 Series S sensor chip by standard amine coupling methods as described by the manufacturer (Cytiva Life Sciences, Mississauga, ON, Canada). […] Approximately 150-400 RUs of each antibody (5-20 μg/mL) were captured on the goat anti-human IgG surface by injecting at 10 μL/min for 60s. Using single-cycle kinetics, five concentrations of a two-fold dilution series of human or cynomolgus GPC3 starting at 40 nM, 20 nM, 10 nM, or 5 nM depending on the antibody, with a blank buffer control were injected at 20 μL/min for 180s of contact time, followed by 180 s dissociation phase, resulting in sensorgrams with a buffer blank reference. The anti-Fc surface was regenerated to prepare for the next injection cycle by one pulse of 10 mM glycine/HCl pH 1.5 for 120 s at 40 μL/min. Blank-subtracted sensorgrams were analyzed and fit to the 1:1 Langmuir binding model using Biacore™ T200 Evaluation Software v3.2.

Binder	Kd Fold difference (hu/cyno)
B1	1.2 fold
B2	1.21 fold
B3	1.13 fold
B4	1.48 fold
B5	1.56 fold
B6	1.61 fold
B7	1.53 fold
B8	1.58 fold
B9	1.19 fold
B10	1.55 fold
B11	1.37 fold
B12	1.19 fold

Biological target: T2, recombinant human GPC3 (glypican-3) (human, UniProt P51654 25-559)
T2 construct: also called huGPC3; hGPC3
Experiment: SPR (Biacore T200), antibody captured by anti-Fc, GPC3 injected
Experimental: as §1, §2

Binder	Avg % binding huGPC3 (RU observed/theoretical)
B1	44.1%
B2	21.3%
B3	23.4%
B4	46.3%
B5	42.8%
B6	42.5%
B7	43.6%
B8	42.2%
B9	43%
B10	42%
B11	14.9%
B12	43.5%

Biological target: T2, recombinant human GPC3 (glypican-3)
Experiment: SPR (Biacore T200), antibody captured by anti-Fc, GPC3 injected, single-cycle kinetics, 1:1 fit; average
Experimental: as §1, §2

Binder	Kd
B1	13.7 nM
B2	19.9 nM
B3	21 nM
B4	10.6 nM
B5	10.3 nM
B6	12.5 nM
B7	11.3 nM
B8	11.5 nM
B9	14.9 nM
B10	11.9 nM
B11	22.7 nM
B12	10.4 nM

Biological target: T1, recombinant cynomolgus GPC3 (glypican-3)
Experiment: as above
Experimental: as §1, §2

Binder	Kd
B1	11.5 nM
B2	16.4 nM
B3	18.5 nM
B4	7.18 nM
B5	6.58 nM
B6	7.78 nM
B7	7.43 nM
B8	7.29 nM
B9	12.5 nM
B10	7.67 nM
B11	16.6 nM
B12	8.79 nM
